Literature values in paper PMC7555924.

Experiments:
Cys1 = Cys1 (UniProt position 1, -----CGVPAI); settings: fully reduced (all disulfides cleaved), molten globule-like conformation
Cys47 = Cys47 (UniProt position 48, SLKASCLYGQL); settings: not stated (the Cys47 thiolate is described as ion-paired with Lys54)
Cys94 = Cys94 (UniProt position 94, GSRNLCNIPCS); settings: fully reduced (all disulfides cleaved), molten globule-like conformation
Cys95 = Cys95 (UniProt position 121, SKYPNCAYKTT); settings: fully reduced (all disulfides cleaved), molten globule-like conformation
Cys75 = Cys75 (UniProt position 99, FGDELCKVASL); settings: fully reduced (all disulfides cleaved), molten globule-like conformation

Substance: Chymotrypsinogen A (reduced, rChTg) (Bos taurus)
- pKa (Cys1): 8.1

Substance: Glutathione S-transferase P1-1 (GSTP1-1) (Homo sapiens)
- pKa (Cys47): 3.5

Substance: Lysozyme C (reduced, rLyz) (Gallus gallus)
- pKa (Cys94): 6.6

Substance: Ribonuclease A (reduced, rRNase) (Bos taurus)
- pKa (Cys95): 7.9

Substance: Serum albumin (reduced, rBSA) (Bos taurus)
- pKa (Cys75): 6.6
